# How the values were obtained:
# Experiment in all cases: cell-based or functional assay
# [1] = biological target: HIV-1 92UG005 Env (pseudovirus) (HIV-1)
# [2] = biological target: HIV-1 MGRM-D-001 Env (pseudovirus) (HIV-1)
# [3] = biological target: HIV-1 JR-CSF Env S306A (HIV-1 (isolate JR-CSF, clade B)) (UniProt P20871)
# [4] = biological target: HIV-1 APV6 Env (pseudovirus) (HIV-1)
# [5] = biological target: HIV-1 93UG077 Env (pseudovirus) (HIV-1)
# [6] = biological target: HIV-1 APV17 Env (pseudovirus) (HIV-1)
# [7] = biological target: HIV-1 94UG103 Env (pseudovirus) (HIV-1)
# [8] = biological target: HIV-1 envelope glycoprotein (Env) of isolate 92RW020 (HIV-1)
# [9] = biological target: HIV-1 envelope glycoprotein (Env) of isolate MGRM-D-001 (HIV-1)
# [10] = biological target: HIV-1 CMU02 envelope glycoprotein (Env) (HIV-1)
# [11] = biological target: HIV-1 JRFL envelope glycoprotein (Env) (HIV-1)
# [12] = biological target: HIV-1 92TH021 envelope glycoprotein (Env) (HIV-1)
# [13] = biological target: HIV-1 APV13 envelope glycoprotein (Env) on virus (HIV-1, clade B, isolate APV13)
# [14] = biological target: HIV-1 CMU02 envelope glycoprotein (Env) on virus (HIV-1, clade AE, isolate CMU02)
# [15] = biological target: HIV-1 92TH021 envelope glycoprotein (Env) on virus (HIV-1, clade AE, isolate 92TH021)
# [16] = biological target: HIV-1 MGRM-C-027 envelope glycoprotein (Env) on virus (HIV-1, clade C, isolate MGRM-C-027)
# [17] = biological target: HIV-1 92BR020 envelope glycoprotein (Env) on virus (HIV-1, clade B, isolate 92BR020)
# [18] = biological target: aMLV envelope protein on virus (negative control) (aMLV)
# [19] = biological target: HIV-1 92RW020 envelope glycoprotein (Env) on virus (HIV-1, clade A, isolate 92RW020)
# [20] = biological target: HIV-1 Env of pseudovirus DU422 (HIV-1)
# [21] = biological target: HIV-1 Env of pseudovirus TR0.11 (HIV-1)
# [22] = biological target: HIV-1 Env of pseudovirus ZM233 (HIV-1)
# [23] = biological target: HIV-1 Env of isolate MGRM-C-027 (clade C) (HIV-1)
# [24] = biological target: HIV-1 Env of isolate MG RM-D-021 (subtype D) (HIV-1)
# [25] = biological target: HIV-1 93UG077 Env (HIV-1 isolate 93UG077 (clade A))
# [26] = biological target: HIV-1 93IN905 Env (HIV-1 isolate 93IN905 (clade C))
# [27] = biological target: HIV-1 MGRM-D-001 Env (HIV-1 isolate MGRM-D-001 (clade D))
# [28] = biological target: HIV-1 MGRM-C-027 envelope glycoprotein (Env), clade C pseudovirus (HIV-1)
# [29] = biological target: HIV-1 MGRM-C-026 envelope glycoprotein (Env), clade C pseudovirus (HIV-1)
# [30] = biological target: HIV-1 MGRM-D-018 envelope glycoprotein (Env), clade D pseudovirus (HIV-1)
# Sequence of 5329_C19 (PGT-136) (antibody) (VH): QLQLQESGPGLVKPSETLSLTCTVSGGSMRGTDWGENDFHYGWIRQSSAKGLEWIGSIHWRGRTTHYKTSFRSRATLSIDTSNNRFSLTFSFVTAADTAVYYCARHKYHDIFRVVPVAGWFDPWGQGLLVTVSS
# Sequence of 5329_C19 (PGT-136) (antibody) (VL): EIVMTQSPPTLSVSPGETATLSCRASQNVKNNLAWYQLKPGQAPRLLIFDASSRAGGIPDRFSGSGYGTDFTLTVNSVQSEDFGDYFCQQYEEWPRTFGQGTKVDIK
# Sequence of 1443_C16 (PG16) (TCN-116) (antibody) (VH): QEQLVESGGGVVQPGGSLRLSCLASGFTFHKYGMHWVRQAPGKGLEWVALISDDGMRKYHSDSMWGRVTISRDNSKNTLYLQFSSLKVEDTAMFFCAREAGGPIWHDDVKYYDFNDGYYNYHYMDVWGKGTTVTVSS
# Sequence of 1443_C16 (PG16) (TCN-116) (antibody) (VL): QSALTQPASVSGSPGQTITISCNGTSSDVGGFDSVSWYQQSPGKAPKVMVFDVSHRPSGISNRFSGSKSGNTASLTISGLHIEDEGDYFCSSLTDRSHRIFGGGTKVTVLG
substance,measurement,setting,value
5123_A06 (PGT-125) (antibody),"Neutralization by PGT-125, IC50",[1],> 10 µg/mL
same,"Neutralization by PGT-125, IC80",[1],> 10 µg/mL
same,"Neutralization by PGT-125, IC90",[1],> 10 µg/mL
same,"Neutralization by PGT-125, IC95",[1],> 10 µg/mL
same,"Neutralization by PGT-125, IC50",[2],2.31 µg/mL
same,"Neutralization by PGT-125, IC80",[2],> 10 µg/mL
same,"Neutralization by PGT-125, IC90",[2],> 10 µg/mL
same,"Neutralization by PGT-125, IC95",[2],> 10 µg/mL
same,Fold IC50 increase relative to wild-type,[3],1.2 fold
same,"Neutralization by PGT-125, IC50",[4],0.0359 µg/mL
same,"Neutralization by PGT-125, IC80",[4],0.133 µg/mL
same,"Neutralization by PGT-125, IC90",[4],0.288 µg/mL
same,"Neutralization by PGT-125, IC95",[4],0.597 µg/mL
same,"Neutralization by PGT-125, IC50",[5],0.0262 µg/mL
same,"Neutralization by PGT-125, IC80",[5],0.0926 µg/mL
same,"Neutralization by PGT-125, IC90",[5],0.206 µg/mL
same,"Neutralization by PGT-125, IC95",[5],0.487 µg/mL
same,"Neutralization by PGT-125, IC50",[6],7.31 µg/mL
same,"Neutralization by PGT-125, IC80",[6],> 10 µg/mL
same,"Neutralization by PGT-125, IC90",[6],> 10 µg/mL
same,"Neutralization by PGT-125, IC95",[6],> 10 µg/mL
same,"Neutralization by PGT-125, IC50",[7],0.0124 µg/mL
same,"Neutralization by PGT-125, IC80",[7],0.0373 µg/mL
same,"Neutralization by PGT-125, IC90",[7],0.071 µg/mL
same,"Neutralization by PGT-125, IC95",[7],0.129 µg/mL
5141_B17 (PGT-126) (antibody),Neutralization IC80,[8],0.0168 µg/mL
same,Neutralization IC90,[8],0.0359 µg/mL
same,Neutralization IC95,[8],0.0728 µg/mL
same,neutralization IC50,[8],0.0046 µg/mL
same,Neutralization IC80,[9],0.333 µg/mL
same,Neutralization IC90,[9],0.832 µg/mL
same,Neutralization IC95,[9],1.8 µg/mL
same,neutralization IC50,[9],0.0639 µg/mL
5329_C19 (PGT-136) (antibody),Neutralization IC80,[10],> 10 µg/mL
same,Neutralization IC90,[10],> 10 µg/mL
same,Neutralization IC95,[10],> 10 µg/mL
same,neutralization IC50,[10],> 10 µg/mL
same,Neutralization IC80,[11],> 10 µg/mL
same,Neutralization IC90,[11],> 10 µg/mL
same,Neutralization IC95,[11],> 10 µg/mL
same,neutralization IC50,[11],> 10 µg/mL
same,Neutralization IC80,[12],> 10 µg/mL
same,Neutralization IC90,[12],> 10 µg/mL
same,Neutralization IC95,[12],> 10 µg/mL
same,neutralization IC50,[12],> 10 µg/mL
4877_D15 (PGT-122) (antibody),Neutralization IC80,[13],4.14 µg/mL
same,Neutralization IC90,[13],8.6 µg/mL
same,Neutralization IC95,[13],> 10 µg/mL
same,neutralization IC50,[13],0.992 µg/mL
same,Neutralization IC80,[14],> 10 µg/mL
same,Neutralization IC90,[14],> 10 µg/mL
same,Neutralization IC95,[14],> 10 µg/mL
same,neutralization IC50,[14],> 10 µg/mL
same,Neutralization IC80,[15],> 10 µg/mL
same,Neutralization IC90,[15],> 10 µg/mL
same,Neutralization IC95,[15],> 10 µg/mL
same,neutralization IC50,[15],> 10 µg/mL
same,Neutralization IC80,[16],0.499 µg/mL
same,Neutralization IC90,[16],> 10 µg/mL
same,Neutralization IC95,[16],> 10 µg/mL
same,neutralization IC50,[16],0.0388 µg/mL
same,Neutralization IC80,[17],0.0929 µg/mL
same,Neutralization IC90,[17],0.168 µg/mL
same,Neutralization IC95,[17],0.289 µg/mL
same,neutralization IC50,[17],0.0337 µg/mL
same,Neutralization IC80,[18],> 10 µg/mL
same,Neutralization IC90,[18],> 10 µg/mL
same,Neutralization IC95,[18],> 10 µg/mL
same,neutralization IC50,[18],> 10 µg/mL
same,Neutralization IC80,[19],0.0407 µg/mL
same,Neutralization IC90,[19],0.113 µg/mL
same,Neutralization IC95,[19],0.289 µg/mL
same,neutralization IC50,[19],0.0072 µg/mL
1443_C16 (PG16) (TCN-116) (antibody),"IC50, pseudovirus neutralization (TZM-bl assay)",[20],0.59 µg/mL
same,"IC50, pseudovirus neutralization (TZM-bl assay)",[21],3.61 µg/mL
same,"IC50, pseudovirus neutralization (TZM-bl assay)",[22],< 0.01 µg/mL
1496_C09 (PG9) (TCN-109) (antibody),neutralization IC50,[23],2.45 µg/mL
PGV04 (antibody),"IC50 (µg/mL), pseudovirus neutralization",[24],> 50 µg/mL
4838_L06 (PGT-121) (antibody),Neutralization IC90,[25],0.369 µg/mL
same,Neutralization IC95,[25],0.74 µg/mL
same,Neutralization IC80,[26],0.0302 µg/mL
same,Neutralization IC90,[26],0.0645 µg/mL
same,Neutralization IC80,[27],3.29 µg/mL
same,Neutralization IC90,[27],6.26 µg/mL
same,Neutralization IC95,[27],9.39 µg/mL
4858_P08 (PGT-123) (antibody),"IC50, pseudovirus neutralization",[28],0.0169 µg/mL
same,IC80 (pseudovirus neutralization),[28],0.149 µg/mL
same,IC90 (pseudovirus neutralization),[28],> 10 µg/mL
same,IC95 (pseudovirus neutralization),[28],> 10 µg/mL
same,"IC50, pseudovirus neutralization",[29],0.0031 µg/mL
same,IC80 (pseudovirus neutralization),[29],0.0094 µg/mL
same,IC90 (pseudovirus neutralization),[29],0.0183 µg/mL
same,IC95 (pseudovirus neutralization),[29],0.0338 µg/mL
same,"IC50, pseudovirus neutralization",[30],0.0047 µg/mL
same,IC80 (pseudovirus neutralization),[30],0.0175 µg/mL
same,IC90 (pseudovirus neutralization),[30],0.0381 µg/mL
same,IC95 (pseudovirus neutralization),[30],0.0791 µg/mL

# Reference: patent US20240132578A1
